Results: patent US20160136234A1

Experiments:
Test in all cases: cell-based or functional assay
ALK4 (h) (human) = target: T1, ALK4 (h) (human) (UniProt P36896)
T1 sequence (looked up): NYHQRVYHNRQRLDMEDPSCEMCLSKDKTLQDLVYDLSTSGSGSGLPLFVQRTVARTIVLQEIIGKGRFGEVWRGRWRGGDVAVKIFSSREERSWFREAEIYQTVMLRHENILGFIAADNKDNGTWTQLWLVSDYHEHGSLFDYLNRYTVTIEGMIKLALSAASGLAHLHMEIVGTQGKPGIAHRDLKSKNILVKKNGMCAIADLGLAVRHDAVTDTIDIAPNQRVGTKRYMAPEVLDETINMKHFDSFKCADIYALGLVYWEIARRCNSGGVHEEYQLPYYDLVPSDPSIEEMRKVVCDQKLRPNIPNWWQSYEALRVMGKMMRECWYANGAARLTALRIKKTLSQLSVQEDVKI

Abl (h) (human) = Abl (h) (human) (UniProt P00519)
Sequence of Abl (h) (human) (P00519 27-1130 limits assumed): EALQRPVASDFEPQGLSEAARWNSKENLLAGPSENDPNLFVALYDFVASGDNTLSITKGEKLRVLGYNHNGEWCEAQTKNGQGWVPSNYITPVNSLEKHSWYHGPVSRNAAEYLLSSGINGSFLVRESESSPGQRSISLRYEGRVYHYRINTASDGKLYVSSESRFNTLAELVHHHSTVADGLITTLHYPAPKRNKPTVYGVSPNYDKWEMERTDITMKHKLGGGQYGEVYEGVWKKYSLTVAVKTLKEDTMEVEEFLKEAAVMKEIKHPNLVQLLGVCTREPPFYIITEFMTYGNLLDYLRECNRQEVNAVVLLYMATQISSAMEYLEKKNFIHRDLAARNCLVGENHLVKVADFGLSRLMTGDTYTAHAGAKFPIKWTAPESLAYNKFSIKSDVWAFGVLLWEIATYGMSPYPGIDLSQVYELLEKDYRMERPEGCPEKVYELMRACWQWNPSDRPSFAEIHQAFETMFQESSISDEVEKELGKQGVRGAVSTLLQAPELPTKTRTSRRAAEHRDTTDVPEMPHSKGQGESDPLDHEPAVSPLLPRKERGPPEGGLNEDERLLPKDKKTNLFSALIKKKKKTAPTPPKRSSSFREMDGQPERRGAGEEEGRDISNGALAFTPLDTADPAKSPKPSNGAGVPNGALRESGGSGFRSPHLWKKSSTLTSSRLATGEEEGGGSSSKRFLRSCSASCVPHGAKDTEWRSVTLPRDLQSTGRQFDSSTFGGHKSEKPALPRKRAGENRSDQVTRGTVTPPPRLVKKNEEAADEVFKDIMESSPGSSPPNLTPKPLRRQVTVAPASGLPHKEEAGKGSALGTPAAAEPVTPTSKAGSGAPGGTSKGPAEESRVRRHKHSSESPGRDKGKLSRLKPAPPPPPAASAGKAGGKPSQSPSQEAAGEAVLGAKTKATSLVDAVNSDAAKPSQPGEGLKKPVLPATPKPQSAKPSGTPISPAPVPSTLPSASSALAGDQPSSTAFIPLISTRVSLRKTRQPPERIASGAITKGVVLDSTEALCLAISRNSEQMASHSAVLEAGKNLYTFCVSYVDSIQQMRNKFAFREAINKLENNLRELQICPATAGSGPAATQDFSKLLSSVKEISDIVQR

Axl (h) (human) = target: T2, Axl (h) (human) (UniProt P30530)
T2 sequence (looked up): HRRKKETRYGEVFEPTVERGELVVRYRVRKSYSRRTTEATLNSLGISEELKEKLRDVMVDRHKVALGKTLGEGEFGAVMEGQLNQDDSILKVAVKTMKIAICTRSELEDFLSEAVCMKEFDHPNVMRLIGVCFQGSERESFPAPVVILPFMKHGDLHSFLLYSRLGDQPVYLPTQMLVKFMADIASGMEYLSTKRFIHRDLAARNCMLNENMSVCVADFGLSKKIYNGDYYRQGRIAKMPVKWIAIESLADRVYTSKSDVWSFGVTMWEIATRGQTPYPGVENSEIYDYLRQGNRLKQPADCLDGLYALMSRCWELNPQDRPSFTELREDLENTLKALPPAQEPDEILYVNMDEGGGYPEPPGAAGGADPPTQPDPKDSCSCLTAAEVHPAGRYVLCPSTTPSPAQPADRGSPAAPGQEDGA

BrSK1 (h) (human) = target: T3, BrSK1 (h) (human) (UniProt Q8TDC3)
T3 sequence (looked up): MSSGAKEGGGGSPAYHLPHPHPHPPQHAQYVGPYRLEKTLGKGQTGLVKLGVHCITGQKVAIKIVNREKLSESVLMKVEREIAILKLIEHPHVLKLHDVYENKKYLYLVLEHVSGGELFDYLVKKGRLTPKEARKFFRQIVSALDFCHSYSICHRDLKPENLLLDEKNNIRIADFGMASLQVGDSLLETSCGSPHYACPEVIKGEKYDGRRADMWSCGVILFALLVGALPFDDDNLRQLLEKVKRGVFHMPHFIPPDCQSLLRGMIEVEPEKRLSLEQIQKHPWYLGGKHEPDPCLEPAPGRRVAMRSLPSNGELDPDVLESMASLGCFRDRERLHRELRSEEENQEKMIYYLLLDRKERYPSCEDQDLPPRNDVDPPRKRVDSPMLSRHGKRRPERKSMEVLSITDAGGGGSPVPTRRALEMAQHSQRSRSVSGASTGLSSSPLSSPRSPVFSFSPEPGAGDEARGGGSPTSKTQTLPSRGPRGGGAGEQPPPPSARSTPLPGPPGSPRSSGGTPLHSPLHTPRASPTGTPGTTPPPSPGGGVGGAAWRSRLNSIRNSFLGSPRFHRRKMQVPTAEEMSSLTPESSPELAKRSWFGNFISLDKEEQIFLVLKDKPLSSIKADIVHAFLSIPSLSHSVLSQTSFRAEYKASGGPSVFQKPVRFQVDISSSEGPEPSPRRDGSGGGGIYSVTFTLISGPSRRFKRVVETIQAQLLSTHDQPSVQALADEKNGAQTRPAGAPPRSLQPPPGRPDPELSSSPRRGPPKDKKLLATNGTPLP

CSK (h) (human) = CSK (h) (human) (UniProt P41240)
EphA2 (h) (human) = EphA2 (h) (human) (UniProt P29317)
Sequence of EphA2 (h) (human) (P29317 559-976 limits assumed): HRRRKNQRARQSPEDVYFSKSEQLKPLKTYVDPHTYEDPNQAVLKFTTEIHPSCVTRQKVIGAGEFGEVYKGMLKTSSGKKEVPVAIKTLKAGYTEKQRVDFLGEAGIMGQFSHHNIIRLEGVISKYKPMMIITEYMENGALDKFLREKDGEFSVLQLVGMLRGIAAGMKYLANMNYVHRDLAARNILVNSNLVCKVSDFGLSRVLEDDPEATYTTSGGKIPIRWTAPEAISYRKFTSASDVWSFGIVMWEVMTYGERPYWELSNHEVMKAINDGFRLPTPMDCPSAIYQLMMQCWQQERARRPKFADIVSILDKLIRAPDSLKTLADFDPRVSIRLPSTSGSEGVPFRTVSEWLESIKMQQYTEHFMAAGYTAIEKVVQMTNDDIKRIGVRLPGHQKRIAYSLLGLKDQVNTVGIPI

ErbB4 (h) (human) = ErbB4 (h) (human) (UniProt Q15303)
Sequence of ErbB4 (h) (human) (Q15303 706-991 limits assumed): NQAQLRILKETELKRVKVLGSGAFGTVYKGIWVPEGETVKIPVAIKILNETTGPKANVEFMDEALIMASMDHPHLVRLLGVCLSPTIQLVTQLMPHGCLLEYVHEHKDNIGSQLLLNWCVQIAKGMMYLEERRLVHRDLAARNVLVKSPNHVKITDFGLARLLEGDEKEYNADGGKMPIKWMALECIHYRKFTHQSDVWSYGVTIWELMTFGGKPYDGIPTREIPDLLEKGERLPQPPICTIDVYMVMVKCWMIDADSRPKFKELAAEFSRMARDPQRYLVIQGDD

Fes (h) (human) = Fes (h) (human) (UniProt P07332)
Flt3(D835Y) (h) (human) = target: T4, Flt3(D835Y) (h) (human) (UniProt P36888)
T4 sequence (looked up): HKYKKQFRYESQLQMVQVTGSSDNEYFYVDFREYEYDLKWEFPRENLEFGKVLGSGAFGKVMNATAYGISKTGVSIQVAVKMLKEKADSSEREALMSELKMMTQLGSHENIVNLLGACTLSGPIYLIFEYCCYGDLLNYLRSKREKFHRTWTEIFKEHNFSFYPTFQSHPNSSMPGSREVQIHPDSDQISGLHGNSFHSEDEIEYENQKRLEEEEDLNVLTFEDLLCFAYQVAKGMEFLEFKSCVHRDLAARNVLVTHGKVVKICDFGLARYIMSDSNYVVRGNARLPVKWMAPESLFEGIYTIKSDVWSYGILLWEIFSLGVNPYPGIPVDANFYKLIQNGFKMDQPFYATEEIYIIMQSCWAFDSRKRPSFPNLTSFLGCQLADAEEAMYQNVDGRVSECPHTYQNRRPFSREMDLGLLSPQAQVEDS

GSK3α (h) (human) = GSK3α (h) (human) (UniProt P49840)
Lyn (h) (human) = Lyn (h) (human) (UniProt P07948)
MuSK (h) (human) = MuSK (h) (human) (UniProt O15146)
PKCβI (h) (human) = PKCβI (h) (human) (UniProt P05771)
[1] = target: SAPK2a(T106M) (h) (human) (UniProt Q16539)
Sequence of SAPK2a(T106M) (h) (human) (Q16539 whole entry T106M): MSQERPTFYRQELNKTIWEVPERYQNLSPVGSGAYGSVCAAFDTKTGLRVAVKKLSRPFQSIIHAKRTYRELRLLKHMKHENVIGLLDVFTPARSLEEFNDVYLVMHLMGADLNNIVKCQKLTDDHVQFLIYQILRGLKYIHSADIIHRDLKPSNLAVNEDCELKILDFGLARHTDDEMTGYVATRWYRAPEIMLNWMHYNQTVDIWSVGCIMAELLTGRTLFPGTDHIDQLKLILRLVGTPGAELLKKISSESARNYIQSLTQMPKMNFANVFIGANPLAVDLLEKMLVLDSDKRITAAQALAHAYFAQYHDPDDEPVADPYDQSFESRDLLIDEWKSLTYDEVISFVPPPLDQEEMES

Tie2 (h) (human) = Tie2 (h) (human) (UniProt Q02763)
Sequence of Tie2 (h) (human) (Q02763 771-1124 limits assumed): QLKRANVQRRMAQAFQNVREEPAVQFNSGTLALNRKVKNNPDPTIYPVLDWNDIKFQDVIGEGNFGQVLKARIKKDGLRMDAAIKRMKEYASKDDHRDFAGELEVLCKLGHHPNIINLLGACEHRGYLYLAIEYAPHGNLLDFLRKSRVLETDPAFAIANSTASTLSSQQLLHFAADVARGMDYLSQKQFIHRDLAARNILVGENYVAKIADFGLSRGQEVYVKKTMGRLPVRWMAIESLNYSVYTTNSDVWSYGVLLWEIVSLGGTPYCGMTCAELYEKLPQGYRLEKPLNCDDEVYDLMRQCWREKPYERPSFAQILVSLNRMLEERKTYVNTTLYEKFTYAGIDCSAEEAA

cKit (h) (human) = cKit (h) (human) (UniProt P10721)
Sequence of cKit (h) (human) (P10721 544-976): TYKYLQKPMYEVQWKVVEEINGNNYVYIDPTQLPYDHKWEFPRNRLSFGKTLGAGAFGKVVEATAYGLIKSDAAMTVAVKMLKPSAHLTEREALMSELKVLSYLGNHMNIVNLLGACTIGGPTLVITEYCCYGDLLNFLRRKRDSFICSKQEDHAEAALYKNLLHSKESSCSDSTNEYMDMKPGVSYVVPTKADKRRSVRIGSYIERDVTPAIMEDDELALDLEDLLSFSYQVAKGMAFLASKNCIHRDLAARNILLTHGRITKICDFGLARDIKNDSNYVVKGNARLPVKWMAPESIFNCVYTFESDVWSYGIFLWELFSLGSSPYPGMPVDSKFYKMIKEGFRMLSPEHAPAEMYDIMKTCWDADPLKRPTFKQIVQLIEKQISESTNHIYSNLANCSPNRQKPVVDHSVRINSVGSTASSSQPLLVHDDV

mTOR/FKBP12 (h) (human) = mTOR/FKBP12 (h) (human) (UniProt P42345)
Sequence of mTOR/FKBP12 (h) (human) (P42345 1362-2549 limits assumed, chain 1 of 2): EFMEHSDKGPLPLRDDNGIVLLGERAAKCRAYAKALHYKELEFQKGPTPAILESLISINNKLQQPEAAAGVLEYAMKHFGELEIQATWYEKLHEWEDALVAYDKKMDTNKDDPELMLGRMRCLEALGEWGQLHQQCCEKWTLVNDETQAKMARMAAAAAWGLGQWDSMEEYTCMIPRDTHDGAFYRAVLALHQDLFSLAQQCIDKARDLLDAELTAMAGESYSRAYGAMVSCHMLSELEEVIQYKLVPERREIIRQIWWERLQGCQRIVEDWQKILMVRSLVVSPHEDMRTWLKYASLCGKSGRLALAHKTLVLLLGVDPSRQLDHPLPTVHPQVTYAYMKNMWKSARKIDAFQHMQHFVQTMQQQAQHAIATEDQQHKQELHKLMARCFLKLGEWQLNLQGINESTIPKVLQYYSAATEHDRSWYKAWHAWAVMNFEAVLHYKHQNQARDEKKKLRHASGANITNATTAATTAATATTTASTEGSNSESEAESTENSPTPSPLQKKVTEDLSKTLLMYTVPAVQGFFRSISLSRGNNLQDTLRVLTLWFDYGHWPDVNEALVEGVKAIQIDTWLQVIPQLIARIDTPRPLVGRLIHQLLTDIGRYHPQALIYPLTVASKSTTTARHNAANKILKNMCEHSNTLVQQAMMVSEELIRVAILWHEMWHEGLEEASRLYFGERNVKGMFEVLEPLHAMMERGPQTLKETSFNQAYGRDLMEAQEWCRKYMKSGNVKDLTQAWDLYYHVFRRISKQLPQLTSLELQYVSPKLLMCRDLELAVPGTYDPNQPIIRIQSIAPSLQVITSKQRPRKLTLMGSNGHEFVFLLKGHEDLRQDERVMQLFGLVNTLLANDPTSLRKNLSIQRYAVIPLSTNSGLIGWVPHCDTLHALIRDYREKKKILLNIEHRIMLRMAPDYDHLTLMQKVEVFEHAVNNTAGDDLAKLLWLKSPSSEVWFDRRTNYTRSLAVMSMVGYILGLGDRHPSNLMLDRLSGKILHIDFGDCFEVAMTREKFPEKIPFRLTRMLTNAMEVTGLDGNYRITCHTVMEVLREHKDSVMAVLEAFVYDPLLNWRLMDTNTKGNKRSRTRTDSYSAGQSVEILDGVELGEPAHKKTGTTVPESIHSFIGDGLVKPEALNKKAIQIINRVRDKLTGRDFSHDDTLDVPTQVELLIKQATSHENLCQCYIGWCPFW
Sequence of mTOR/FKBP12 (h) (human) (P62942 whole entry, chain 2 of 2, further chain): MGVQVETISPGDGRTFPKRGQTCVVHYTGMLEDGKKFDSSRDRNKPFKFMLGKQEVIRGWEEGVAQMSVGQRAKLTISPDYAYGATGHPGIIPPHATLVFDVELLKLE

- % activity at 100 µM (ALK4 (h) (human)): 140%
- % activity at 100 µM (Abl (h) (human)): 69%
- % activity at 100 µM (Axl (h) (human)): 52%
- % activity at 100 µM (BrSK1 (h) (human)): 67%
- % activity at 100 µM (CSK (h) (human)): 49%
- % activity at 100 µM (EphA2 (h) (human)): 31%
- % activity at 100 µM (ErbB4 (h) (human)): 40%
- % activity at 100 µM (Fes (h) (human)): 20%
- % activity at 100 µM (Flt3(D835Y) (h) (human)): 80%
- % activity at 100 µM (GSK3α (h) (human)): 157%
- % activity at 100 µM (Lyn (h) (human)): 69%
- % activity at 100 µM (MuSK (h) (human)): 93%
- % activity at 100 µM (PKCβI (h) (human)): 78%
- % activity at 100 µM [1]: 97%
- % activity at 100 µM (Tie2 (h) (human)): 26%
- % activity at 100 µM (cKit (h) (human)): 53%
- % activity at 100 µM (mTOR/FKBP12 (h) (human)): 145%
Substance: MMI-0300 (peptide)
